{"source": "the DeepSol protein solubility set"}
{"test": "soluble on expression in E. coli; label from the status in PepcDB or PDB records"}
{"sequence": "MAHHHHHHMTVKVASEVSLLPYGEHQGSFRGVVACSNRDDGYFSGENNYVDTSIYTGFRYQCVEYARRFLLLTTGCVFANCGRASEIYAMDHITHVETGAQYTLHRHHNDGTATQKPAPGDIIIYPYHPELTPWGHVGVISFVDDNRVGIAEQNHYFGPFTSPSESYLDGERCVARYAMLTLDEATKTWRIDEPGAMPSAVGWLSYPDAPTREQIHAPFTPLPCAIKVRSTPFDQDDHPFLTHYHLHKIFDIPSGCVRHAYGMRNGTAETLVGATSAAARVLRFTLHLLFHRGRLGPAFRALPTNPLNATLPEGAGASTEACREVDALFKVLAEEDVVNATETTPDRLRQAVATYFDIPVEWVMAMERDFAKGETHMAAVVSFYPNIATDSAALEAFRAARKRSGTWAAPAVGTVPLTTAKASTPVAEEPLTLSYPATVEELPLKNPHDEAWHLATVNFGNARVMTELSQLNKVKQDLTETIALMTPSMRPFISTQYRMDFAGYLKVVEAVYGPRTGFTIVVSDDQPMDGLLRELVSTVQNLCEHVEYPVRIVNEKDLTFVNGKLHATPSAISPEAGSHMTNIAPSGAYDVNFVYALCEWPRILACREATHAALYRAAVDPASDVVFAKPLWSYLCSGAVNVSDDAERAHYSHSPRSPSVRFFDVCRRLYLLASPTQQPKTWDLEVSEYKDSCRRIHVDAETVPMHSPAHLNADSLMINLAGSCYMGHAGGTLSVESENTGIHVGHPAFLMFMFPAD", "soluble on expression in E. coli": "not soluble"}
{"sequence": "TSPVNWDVTGTFSMNRTYMKKLPYNGRDKNRVQGGLVWDAKSGTYVETGGLAEGERIGGRWGYKYLGVYDTDEEAAKAPVDTKVSGSKMNKKKVAGDAIWADLDNNGVIDDKDITFIGWANPDKKGALINNLSYKNFSLRLVVDFALGHSIANIWRCRANANARNAIITTTDVTNGNIWWQTGDAATAKYPRYDVASDWDNGYRNHMRTIAYAGMNSNGNADNTAYYSKGDYLCFREVSLGYELPRSVCSKMKVKGVSLNAGVTNIGYITAFDGLNPEQYDGQETGEYFLPIQFNFGVRLTF", "soluble on expression in E. coli": "not soluble"}
{"sequence": "MDAHLVQAKKTSTASELSDSSLTFPFIGDYLSSPSLTTSDYVSDCSNLTVEGPVPANQEFSSSDESSVYISSALRLADYAFTPDDNIRIKPDAVIVICTQCQHQIQDKFFLSIDGRNYHENCLQCSTCENPLSNKCFYKDKTFYCKGCYFRTHVTSTASSCRELGPKCASCDRTIQATDWVRRARNYVYHLACFSCNQCKRQLSTGEEYALQEGNLLCKQHFLELVEGDSGVSSQKAKTKRVRTTFAEDQLSVLQTYFNRDSNPDGADLEKIASMTGLSKRVTQVWFQNSRARQKKWHQKSEGDNGDSQRSSVGPSSPSQKSDSSSEMMYPTSVTTSVEDAIPDSIVILGSLQFD", "soluble on expression in E. coli": "not soluble"}
{"sequence": "MTIHHHGSAERKSIDDYSDIPRGEACKQLVEQLNRNLYSLNSNMQTTFKQMVHVETRIGHEISLLSSCLQENMSKCTMPYAPHEEQLVQLDSAKRNLKQLTRLLDARQIFDAEDSQSEKLKDRAIDDSLLPTLVAIGDNLKIIKELGAKPKFDAETYHKTKDRYLAWKGTEFAVKFDTPGGLDDIFDAFTTLNSVNDFYRLYQHHFDQSLNNLNKNSGIEDEKSLKEMGTVFVTKAAEHFRTHIGSLCKYCDENEAFTRLLDAWKNYIKNGTLEKLFEQSMENYNNYDLLSDLKSVVTKAYEEFETNTAGGPEDDEESIENIERIIVDGLMESAKKPLSEKLRSMVEPPPLNFRSVAEVMSSLENFAYLLREISHQLLEIYLEDEGREFMISILKPIFTDYTMRLCRMEDNSTPKVKLEEYLERIALAGQLSTIVEEYKDQTEIKNGLELKNAKKWMNERVKDAIRASHRFVTDKMPNHGSETYKESADMAKSALPTPQDFVVTATQNLLHLLRFWEEALANENTKVALIAHVMDINKESLETPDDDAIFAAILDRIASHVVKKLLQSINDVWLTDGKTATLSKGLVKEFLCDAEYLRDALVDLRAGTHDNLDSTINKLREQLKTMS", "soluble on expression in E. coli": "not soluble"}
{"sequence": "SATREWFVMNAQQTKLALESPPLFAVKKDDDKDHTCDTGEEPYALVGSPVFNPLEDYKREVVSIIDEYFSSGDVEVAASDLMDLGLSEYHPYFVKRLVSMAMDRGNKEKEKASVLLSRLYALVVSPDQIRVGFIRLLESVGDLALDIPDAVNVLALFIARAIVDEILPPVFLARAKKTLPHSSQGFQVILVSENSYLSAPHHAELVETKWGGSTHITVEETKRKISEFLNEYVENGDTREACRCIRELGVSFFHHEIVKSGLVLVMESRTSEPLILKLLKEATEEGLISSSQMAKGFSRVADSLDDLSLDIPSAKTLFESIVPKAIIGGWLDEDSFKERSDQNGGSENLRRFKKDAETIIQEYFLSDDIPELIRSLEDLGLPEYNPVFLKKLITLAMDRKNKEKEMASVFLASLHMEMFSTEDFINGFIMLLESAEDTALDILAASDELALFLARAVIDDVLAPLNLEEISNSLPPKSTGSETIRSARSLISARHAGERLLRSWGGGTGWAVEDAKDKIWKLLEEYEVGGVISEACRCIRDLGMPFFNHEVVKKALVMAMEKKNDRMLNLLQECFAEGIITTNQMTKGFGRVKDSLDDLSLDIPNAEEKFNSYVAHAEENGWLHRDFGCSTDS", "soluble on expression in E. coli": "soluble"}
{"sequence": "GPLGSMTTKQTVSLFIWLPESKQKTLFISTKNHTQFELNNIIFDVTLSTELPDKEPNAIITKRTHPVGKMADEMRKYEKDHPKVLFLESSAIHDMMSSREEINALLIKNNIPIPNSFSVKSKEEVIQLLQSKQLILPFIVKPENAQGTFNAHQMKIVLEQEGIDDIHFPCLCQHYINHNNKIVKVFCIGNTLKWQTRTSLPNVHRCGIKSVDFNNQHLEDILSWPEGVIDKQDIIENSANRFGSKILEDPILLNLTSEAEMRDLAYKVRCALGVQLCGIDFIKENEQGNPLVVDVNVFPSYGGKVDFDWFVEKVALCYTEVAKI", "soluble on expression in E. coli": "soluble"}
{"sequence": "SKKGGKRFEIACYKNKVMSWRSGAEKDLDEVLQTNTVFVNVSKGQVAKKEDLSNAFGTDDLTEICKQILSKGELQVSDKERQSQLEQMFRDIATIVAEKCVNPETKRPYTVNLIERAMKDIHFSVKANKSTKQQALEVIKQLKESIQIQRAHMRLRFVLPAKDGKRLKEKLKPLIKAVENEDFDDQLEMVCLIDPGCFRDIDELIRCETKGKGTLEVLSLKDVEEGDEKLE", "soluble on expression in E. coli": "soluble"}
{"sequence": "MIKLTVSHHKLTASGHALFAKKGQDIVCAAVSGIIFGALPWFETNSIAVQEDATVPSLSLELVQPTAKLITGLSVVIMQLKTLAHSYPQFISFEDQRKDE", "soluble on expression in E. coli": "soluble"}
{"sequence": "MGSDKIHHHHHHMLANLNQAMDYIEEHLTEEVSFDELAKKTGISVYHFKRTFSFITGMSLAEYIKKRPLAEANLALLAGEKVTDVAFKYGYQSIEGFSRAFRDWSGQAPSEVMKTQIQKTFPKFSFYIDIKGGQSMDVKLIEKPAFQIVGVSQKVPLQYQGENQAIMELAQRITPQQRAEMHTFDDIYPHQVVNASFDFQEGRTTEGGEMTHMIGFATSQENTYEDLEQLSVPAHTWAVFPNEGPFPQTLQETWAKIFSEWLPSSGYQVVAAPEISFTQYQGPAEAKYSEIWLAVTATK", "soluble on expression in E. coli": "not soluble"}
{"sequence": "MFSIDDVAKQAQSLAGKGYETPKSNLPSVFRDMKYADYQQIQFNHDKAYWNNLKTPFKLEFYHQGMYFDTPVKINEVTATAVKRIKYSPDYFTFGDVQHDKDTVKDLGFAGFKVLYPINSKDKNDEIVSMLGASYFRVIGAGQVYGLSARGLAIDTALPSGEEFPRFKEFWIERPKPTDKRLTIYALLDSPRATGAYKFVVMPGRDTVVDVQSKIYLRDKVGKLGVAPLTSMFLFGPNQPSPANNYRPELHDSNGLSIHAGNGEWIWRPLNNPKHLAVSSFSMENPQGFGLLQRGRDFSRFEDLDDRYDLRPSAWVTPKGEWGKGSVELVEIPTNDETNDNIVAYWTPDQLPEPGKEMNFKYTITFSRDEDKLHAPDNAWVQQTRRSTGDVKQSNLIRQPDGTIAFVVDFTGAEMKKLPEDTPVTAQTSIGDNGEIVESTVRYNPVTKGWRLVMRVKVKDAKKTTEMRAALVNADQTLSETWSYQLPANEVEHHHHHH", "soluble on expression in E. coli": "soluble"}
{"sequence": "MYLQLLKPTLLRCSTRPSSSGAYTRSPIDQKWAAMAKKAMKGREADTLTWNTPEGIPIKPLYLRSDRDCDAQRSVELPGQFPFTRGPYPTMYTQRPWTIRQYAGFSTVEESNKFYKENIKAGQQGLSVAFDLATHRGYDSDNPRVFGDVGMAGVAVDSVEDMRQLFDGINLEKMSVSMTMNGAVVPVLAMYVVAAEEAGVSRKLLAGTIQNDILKEFMVRNTYIYPPEPSMRIIGDIFAYTSREMPKFNSISISGYHMQEAGADAVLEMAFTIADGIQYCETGLNAGLTIDAFAPRLSFFWGISMNFYMEIAKMRAARRLWANLIKERFSPKSDKSMMLRTHSQTSGWSLTEQDPYNNIIRTTIEAMASVFGGTQSLHTNSFDEALGLPTKFSARIARNTQIIIQEESGICNVADPWGGSYMMESLTDEIYEKALAVIKEIDELGGMAKAVASGMTKLKIEEAAAKKQARIDAGKDVIVGVNKYRLDHEQQVEVLKIDNAKVREEQCAKLNHIRATRDAEKAQKALDAITEGARGNGNLMELAIEAARARCTVGEISDAMEKVFNRHAAVNRLVSGAYKSEFGETSEMSQVLERVKSFADRDGRQPRIMVAKMGQDGHDRGAKVIATGFADLGFDVDVGPLFQTPLEAAQQAVDADVHVIGASSLAAGHLTLIPQLIGELKKLGRPDILVVAGGVIPPQDYKELYDAGVALVFGPGTRLPACANQILEKLEANLPEAPGKAASR", "soluble on expression in E. coli": "not soluble"}
{"sequence": "GSHMFKCMEALGMESGEIHSDQITASSQYSTNWSAERSRLNYPENGWTPGEDSYREWIQVDLGLLRFVTAVGTQGAISKETKKKYYVKTYKIDVSSNGEDWITIKEGNKPVLFQGNTNPTDVVVAVFPKPLITRFVRIKPATWETGISMRFEVYGCKITDYPCSGMLGMVSGLISDSQITSSNQGDRNWMPENIRLVTSRSGWALPPAPHSYINEWLQIDLGEEKIVRGIIIQGGKHRENKVFMRKFKIGYSNNGSDWKMIMDDSKRKAKSFEGNNNYDTPELRTFPALSTRFIRIYPERATHGGLGLRMELLGCEVE", "soluble on expression in E. coli": "soluble"}
{"sequence": "MGSDKIHHHHHHMRFFIAIYEENNITAAATRCYVSQPSLSAGLKQLEEELGGPLFERSKKGVKALDSAHYLYPLAVKLVEEASKLPALFMAKASRQKLRLAVMPDLSQRRLAGLLTQINQAISHLDLELVDYQSTADCRLTLDSLRHEDEVFFPLWEEDYVLCVPTEHPLAQANRIRPEELSQYDFIECPPCEAHQQTIGLLACSNLSLNLVAKADSKSLVMSLVLAGFGVSFLPDGLIEDEPRLKQIKFDGPRMFRRIGLCYPSHQAVAPTLAKLLRYLTQATA", "soluble on expression in E. coli": "not soluble"}
{"sequence": "MYATFSALKKYGYAELSIQRIASELNFSKSTLYHHFSDKDDLLLSFFNFLLDELEQFCKSSSTNEPKKELLDFVDVLLDEGITQKEQSAKGEILAAYIELRSQAIHDTKYRERITRTDKRFVKQIAVIIDAGIDKGVFQPVEPEETAEFILAILNGILMQGSTRKRAPFQQLRQNLIEYIQTELFVESATRS", "soluble on expression in E. coli": "not soluble"}
{"sequence": "QSKDGSVRHSGDNRTGQGDGDDETITVDLTRLPAAVTTVIFSVNNYTGQDFGQVENAYCRLVNTQGGQEIARYNLSVQGNHSAMILASLKRQGGDWAMTAIGAPSR", "soluble on expression in E. coli": "not soluble"}
{"sequence": "MGSDKIHHHHHHMKVKYIAAILLSTQLVYTACDDMGFLQIKPDSLELTDDRIKTVDDLENLLLGAYNGIRSSGFWGGRTLRGFDVIADDGVADVATFEWVQMSAHTMNLVNAVGRDTWTATYNAINMANQVAFSDLGESILASDPQKEAQFKAEASFIRALGYFHLVRAFGLPYAEETKDIAEMGVPLRLRGVMDRATAFEVVQRSTVSEVYSQIISDLEYAIGNLPGENKVESGRATVDGAKALLAKVYFYKHDFGNAAKYAEQVINTQKYDLDEDLTAKFGRAEKKTVTQEIVAMIPSASLIEDSWGGLRDYRTNGLALPTSRPSNELIAAYDQQNDNRFKTFFKNIDGSWYTLKFDYEYMDGIIIGYNELLLLYAESLAESNGNMNQALNALQKIEKRAYGKANTTTTDRASFIKAVQKERRLEIALQGERLFELKRIKQSVRGEAWDSHKVMFQIPDVEQNGNPDVNMN", "soluble on expression in E. coli": "not soluble"}
